Data published in the supplement of paper PMC7877785.
± gives the uncertainty stated by the source.

Assay: self-splicing fitness, log relative to wild type (ln ratio); higher = more splicing; Tetrahymena group I intron in knt gene, E. coli kanamycin selection, DiMSum; sequences stand for … in CUCUCU…GGAGGGAAAAGUUAUCAGGCAUGCACCUGGUAGCUAGUCUUUAAACCAAUAGAUUGCAUCGGUUUAAAAGGCAAGACCGUCAAAUUGCGGGAAAGGGGUCAACAGCCGUUCAGUACCAAGUCUCAGGGGAAACUUUGAGAUGGCCUUGCAAAGGGUAUGGUAAUAAGCUGACGGACAUGGUCCUAACCACGCAGCCAAGUCCUAAGUCAACAGAUCUUCUGUUGAUAUGGAUGCAGUUCACAGACUAAAUGUCGGUCGGGGAAGAUGUAUUCUUCUCAUAAGAUAUAGUCGGACCUCUCCUUAAUGGGAGCUAGCGGAUGAAGUGAUGCAACACUGGAGCCGCUGGGAACUAAUUUGUAUGCGAAAGUAUAUUGAUUAGUUUUGGAGUACUCGUGGUCG
In short: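 DiMSum derived fitness as the error-weighted combination of fold changes across replicates, kanamycin versus no kanamycin, normalised to wild type. E. coli BL21(DE3) held the library, which randomised all eight P1ex-region intron nucleotides within the knt kanamycin-resistance gene on pET-22b(+). Six replicate transformations grew overnight at 37°C or 30°C on LB agar with or without 25 μg/mL kanamycin, also containing 100 μg/mL carbenicillin, 50 μM IPTG and 0.2% rhamnose, and pooled colonies were amplicon-sequenced on an Illumina HiSeq 2500.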

Sequence	self-splicing fitness (ln) (30 °C)	self-splicing fitness (ln) (37 °C)
AGUUAGCAAUAUUACGACUU	-1.32 ± 0.078	-0.587 ± 0.12
AGUUAGCAAUAUUACGAGUU	-1.5 ± 0.086	-0.514 ± 0.11
AGUUAGCAAUAUUACGAUCG	-0.446 ± 0.1	-0.0837 ± 0.12
AGUUAGCAAUAUUACGAUCU	-0.0546 ± 0.1	0.11 ± 0.13
AGUUAGCAAUAUUACGCAUA	-1.15 ± 0.19	-0.764 ± 0.29
AGUUAGCAAUAUUACGCGAC	-2.88 ± 0.45	-0.848 ± 0.26
AGUUAGCAAUAUUACGCGCG	-0.159 ± 0.12	-0.151 ± 0.15
AGUUAGCAAUAUUACGCUCU	-1.37 ± 0.45	
AGUUAGCAAUAUUACGCUGA	-3.13 ± 0.3	-2.05 ± 0.27
AGUUAGCAAUAUUACGGUUU	-0.98 ± 0.071	-0.317 ± 0.1
AGUUAGCAAUAUUACGUCUU	-0.214 ± 0.096	0.541 ± 0.13
AGUUAGCAAUAUUACGUGCC	-0.977 ± 0.12	-0.145 ± 0.16
AGUUAGCAAUAUUACGUUCU	-0.403 ± 0.1	-0.302 ± 0.11
AGUUAGCAAUAUUACGUUGA	-2.03 ± 0.31	-2.02 ± 0.39
AUAAAGCAAUAUUACGACGC	0.18 ± 0.093	0.349 ± 0.14
AUAAAGCAAUAUUACGACUC	-0.219 ± 0.075	0.324 ± 0.088
AUAAAGCAAUAUUACGAUAC	-1.39 ± 0.12	-0.441 ± 0.14
AUAAAGCAAUAUUACGCAGC	-3.55 ± 0.4	-1.04 ± 0.28
AUAAAGCAAUAUUACGCCGA	-1.06 ± 0.077	0.123 ± 0.11
AUAAAGCAAUAUUACGCCGC	-2.8 ± 0.18	-2.05 ± 0.27
AUAAAGCAAUAUUACGCCGG	-0.516 ± 0.13	-0.807 ± 0.17

Sequence	self-splicing fitness (ln) (30 °C)	self-splicing fitness (ln) (37 °C)
AUAAAGCAAUAUUACGCGAG	-1.08 ± 0.075	0.0257 ± 0.095
AUAAAGCAAUAUUACGCGCA	0.0901 ± 0.058	-0.398 ± 0.075
AUAAAGCAAUAUUACGCGGA	-1.65 ± 0.083	0.155 ± 0.089
AUAAAGCAAUAUUACGCGUG	-1.11 ± 0.067	-0.15 ± 0.074
AUAAAGCAAUAUUACGGCAC	-0.531 ± 0.073	-0.1 ± 0.11
AUAAAGCAAUAUUACGGCCU	0.372 ± 0.11	0.382 ± 0.14
AUAAAGCAAUAUUACGGCGC	0.0765 ± 0.13	0.21 ± 0.14
AUAAAGCAAUAUUACGGCGG	-0.248 ± 0.062	-0.197 ± 0.077
AUAAAGCAAUAUUACGGGCC	-2.21 ± 0.17	-0.0428 ± 0.17
AUAAAGCAAUAUUACGGGGA	-1.96 ± 0.14	-1.4 ± 0.18
AUAAAGCAAUAUUACGGUGG	-2.61 ± 0.1	-1.4 ± 0.12
AUAAAGCAAUAUUACGUAAU	-0.762 ± 0.081	-0.869 ± 0.094
AUAAAGCAAUAUUACGUCAG	-1.6 ± 0.12	-0.647 ± 0.12
AUAAAGCAAUAUUACGUCGG	-1.28 ± 0.075	-0.774 ± 0.089
AUAAAGCAAUAUUACGUGAU	-1.64 ± 0.074	-0.793 ± 0.11
AUAAAGCAAUAUUACGUGGC	-3.27 ± 0.13	-2.69 ± 0.16
AUAAAGCAAUAUUACGUGUG	-1.55 ± 0.061	-0.947 ± 0.073
AUAAAGCAAUAUUACGUUCC	-0.979 ± 0.13	-0.885 ± 0.18
AUAAAGCAAUAUUACGUUUA	-0.935 ± 0.065	-0.201 ± 0.08
AUACAGCAAUAUUACGAGAG	-3.39 ± 0.14	-2.1 ± 0.088
AUACAGCAAUAUUACGAUAC	-2.01 ± 0.075	-1.08 ± 0.088
